# Experimental data as given in patent US20040058366, “Novel clock gene bmal2” (published 2004).
# B1: cPer2 E-box probe (dsDNA)
# DNA 1: GTGTCACACGTGAGGCTTA
# DNA 2: TAAGCCTCACGTGTGACAC
# Tests used:
# [1] = target: T1, cBMAL2-cCLOCK heterodimer (Gallus gallus, UniProt Q8QGQ7;Q8QGQ6 Q8QGQ7:1-622,Q8QGQ6:1-875); test: EMSA; two or three specific complexes; 7.5 mM MgCl2, 100 mM KCl, pH 7.6, 23 C; conditions: tags: TNT-T7 coupled transcription/translation; label: 32P; within a 39 bp EcoRI fragment excised from pCR2.1
# T1 sequence 1: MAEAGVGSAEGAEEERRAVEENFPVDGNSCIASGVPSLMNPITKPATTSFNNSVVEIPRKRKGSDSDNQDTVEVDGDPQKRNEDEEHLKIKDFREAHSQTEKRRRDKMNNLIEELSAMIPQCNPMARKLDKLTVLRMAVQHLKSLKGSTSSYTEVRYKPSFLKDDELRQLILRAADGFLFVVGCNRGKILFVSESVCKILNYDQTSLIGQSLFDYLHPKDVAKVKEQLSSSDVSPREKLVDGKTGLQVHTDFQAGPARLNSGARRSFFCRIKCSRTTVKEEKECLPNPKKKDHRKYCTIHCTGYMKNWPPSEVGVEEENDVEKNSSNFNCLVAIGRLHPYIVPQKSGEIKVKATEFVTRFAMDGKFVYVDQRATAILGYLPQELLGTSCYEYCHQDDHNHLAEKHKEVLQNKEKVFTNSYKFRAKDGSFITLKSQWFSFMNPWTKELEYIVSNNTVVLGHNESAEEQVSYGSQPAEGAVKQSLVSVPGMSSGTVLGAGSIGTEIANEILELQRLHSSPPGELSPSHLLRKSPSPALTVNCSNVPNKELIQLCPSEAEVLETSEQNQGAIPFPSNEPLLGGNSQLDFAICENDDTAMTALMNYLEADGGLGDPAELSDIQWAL
# T1 sequence 2: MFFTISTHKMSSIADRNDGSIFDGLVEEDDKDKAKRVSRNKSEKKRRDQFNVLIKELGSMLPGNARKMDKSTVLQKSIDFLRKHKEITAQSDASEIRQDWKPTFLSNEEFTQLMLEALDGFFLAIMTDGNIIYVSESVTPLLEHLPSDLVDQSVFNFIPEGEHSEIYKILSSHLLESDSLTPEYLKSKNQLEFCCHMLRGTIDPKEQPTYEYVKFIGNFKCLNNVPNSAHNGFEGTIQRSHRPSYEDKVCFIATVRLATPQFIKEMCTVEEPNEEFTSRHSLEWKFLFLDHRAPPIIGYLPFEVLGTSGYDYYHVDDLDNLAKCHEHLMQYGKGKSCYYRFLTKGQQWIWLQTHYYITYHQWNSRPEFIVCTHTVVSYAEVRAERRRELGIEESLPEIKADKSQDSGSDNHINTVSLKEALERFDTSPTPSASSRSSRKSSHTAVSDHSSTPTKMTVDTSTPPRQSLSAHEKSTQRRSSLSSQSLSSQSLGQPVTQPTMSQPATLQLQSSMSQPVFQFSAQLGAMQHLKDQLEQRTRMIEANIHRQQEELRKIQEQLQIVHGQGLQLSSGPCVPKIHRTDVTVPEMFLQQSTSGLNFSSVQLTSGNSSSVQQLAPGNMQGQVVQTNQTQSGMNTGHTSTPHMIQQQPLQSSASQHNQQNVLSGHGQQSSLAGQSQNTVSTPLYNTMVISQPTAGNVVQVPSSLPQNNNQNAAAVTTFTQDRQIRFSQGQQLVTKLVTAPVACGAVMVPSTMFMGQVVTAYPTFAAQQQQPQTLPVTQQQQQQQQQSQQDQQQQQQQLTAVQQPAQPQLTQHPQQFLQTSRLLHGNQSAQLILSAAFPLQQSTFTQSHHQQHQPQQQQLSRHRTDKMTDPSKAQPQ
# Source text: (§1) For preparation of the probe, oligonucleotides [cP2E1-S: 5′-GTGTCACACGTGAGGCTTA-3′ (Seq. ID No. 59) and cP2E1-AS: 5′-TAAGCCTCACGTGTGACAC-3′ (Seq. ID No. 60)] were synthesized that correspond to the E-box sequence and its flanking sequences within a putative promoter/enhancer region of cPer2 gene. These oligonucleotides synthesized were annealed together and subcloned into a pCR2.1 vector using TOPO-TA cloning kit (Invitrogen, Calif.), from which a 39 bp fragment was excised with a restriction enzyme EcoRI and used. The above-mentioned cBMAL1, cBMAL2 and cCLOCK were prepared by being transcribed and translated in vitro from an expression plasmid containing the cDNA of cBmal1, cBmal2 or cClock with the aid of TNT-T7 Quick Coupled Transcription/Translation System (Promega). […]
# (§2) 5 μL each of the protein mixtures thus obtained (BMAL1+BMAL2, BMAL1+CLOCK, BMAL2+CLOCK) was added with 32 μL of buffer [25 mM Hepes-KOH (pH 7.6), 100 mM KCl, 0.1 mM EDTA, 10% (v/v) glycerol, 7.5 mM MgCl₂, 1 mM DTT and 1 μg denatured salmon sperm DNA] containing a ³²P-labeled probe (33 fmoles, 1.3×10⁵ cpm) andwas incubated for 20 min at 23° C. After the incubation, each mixture was separated by a 6% polyacrylamide gel electrophoresis and analyzed similarly as in Example 7 using a FLA2000 bioimage analyzer (FUJI PHOTO FILM). […]
# [2] = target: cBMAL1-cCLOCK heterodimer (Gallus gallus, UniProt Q9I8T7;Q8QGQ6 Q9I8T7:1-633,Q8QGQ6:1-875); test: as above; conditions: tags: TNT-T7 coupled transcription/translation; label: 32P; within a 39 bp EcoRI fragment excised from pCR2.1
# Sequence of cBMAL1-cCLOCK heterodimer (Q9I8T7 whole entry, the tested form may be a part, one chain of several): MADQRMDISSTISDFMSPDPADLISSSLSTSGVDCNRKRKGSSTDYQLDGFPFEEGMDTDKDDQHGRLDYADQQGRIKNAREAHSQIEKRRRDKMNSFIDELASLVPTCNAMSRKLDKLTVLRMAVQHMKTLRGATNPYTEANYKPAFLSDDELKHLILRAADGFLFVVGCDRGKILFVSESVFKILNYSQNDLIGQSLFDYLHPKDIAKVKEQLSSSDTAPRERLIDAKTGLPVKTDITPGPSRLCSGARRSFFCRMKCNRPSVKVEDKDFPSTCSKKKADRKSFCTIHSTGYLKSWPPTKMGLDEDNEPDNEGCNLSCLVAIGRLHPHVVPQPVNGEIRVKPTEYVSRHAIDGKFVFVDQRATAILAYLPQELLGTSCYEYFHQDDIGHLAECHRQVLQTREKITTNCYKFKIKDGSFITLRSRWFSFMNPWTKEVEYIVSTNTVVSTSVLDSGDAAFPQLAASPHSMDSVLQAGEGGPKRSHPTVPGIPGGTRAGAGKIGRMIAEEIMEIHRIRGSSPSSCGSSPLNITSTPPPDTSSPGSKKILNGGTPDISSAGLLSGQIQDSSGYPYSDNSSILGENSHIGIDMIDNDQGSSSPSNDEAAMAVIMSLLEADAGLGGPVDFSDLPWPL
# Source text: as §1, §2
# cBMAL2 = target: T2, cBMAL2 (Gallus gallus, UniProt Q8QGQ7 SEQ:1-622); test: EMSA; no specific band with cBMAL2 alone; conditions: label: 32P; within a 39 bp EcoRI fragment excised from pCR2.1
# T2 sequence: T1 sequence 1
# Source text: as §1, §2
# cCLOCK = target: T3, cCLOCK (Gallus gallus, UniProt Q8QGQ6 Q8QGQ6:1-875); test: EMSA; no specific band with cCLOCK alone; conditions: label: 32P; within a 39 bp EcoRI fragment excised from pCR2.1
# T3 sequence: T1 sequence 2
# Source text: as §1, §2
# cBMAL1 = cBMAL1 (Gallus gallus, UniProt Q9I8T7 Q9I8T7:1-633); test: EMSA; no specific band with cBMAL1 alone; conditions: label: 32P; within a 39 bp EcoRI fragment excised from pCR2.1
# Sequence of cBMAL1 (Q9I8T7 whole entry, the tested form may be a part, one chain of several): as above
# Source text: as §1, §2
binder,measurement,setting,value
B1,binding result,[1],binds
same,binding result,[2],binds
same,binding result,cBMAL2,no binding
same,binding result,cCLOCK,no binding
same,binding result,cBMAL1,no binding
